{
  "source": "paper PMC6718402",
  "about": "“The structural basis of lipid scrambling and inactivation in the endoplasmic reticulum scramblase TMEM16K” (Nature Communications, 2019)",
  "molecular_target": "the molecule itself",
  "assay": "crystal structure; TMEM16K purified in UDM/CHS, crystallised in lipidic cubic phase (MAG 7.9; 0.1 M MES pH 6.0, 0.1 M NaCl, 0.1 M CaCl2, 30% PEG300) and by sitting drop vapour diffusion (0.1 M HEPES pH 7.0, 0.1 M calcium acetate, 22% PEG400); open groove conformation",
  "data": [
    {"protein": "human TMEM16K (anoctamin-10), full length (natural protein, UniProt Q9NW15-1 1-660, looked up, The tag was removed with TEV protease before size exclusion, so residues of the TEV site may remain at the C-terminus; Modelled residues: Ser14-Gln639 (LCP crystal), Ser13-Lys641 (2 mM Ca2+ cryo-EM); the purification is described as similar to that for crystallisation (Sf9); also called hTMEM16K; ANO10; source: Sf9 cells (baculovirus), purified in UDM/CHS (Talon resin, TEV cleavage, Superose 6 …)) MKVTLSALDTSESSFTPLVVIELAQDVKEETKEWLKNRIIAKKKDGGAQLLFRPLLNKYEQETLENQNLYLVGASKIRMLLGAEAVGLVKECNDNTMRAFTYRTRQNFKGFDDNNDDFLTMAECQFIIKHELENLRAKDEKMIPGYPQAKLYPGKSLLRRLLTSGIVIQVFPLHDSEALKKLEDTWYTRFALKYQPIDSIRGYFGETIALYFGFLEYFTFALIPMAVIGLPYYLFVWEDYDKYVIFASFNLIWSTVILELWKRGCANMTYRWGTLLMKRKFEEPRPGFHGVLGINSITGKEEPLYPSYKRQLRIYLVSLPFVCLCLYFSLYVMMIYFDMEVWALGLHENSGSEWTSVLLYVPSIIYAIVIEIMNRLYRYAAEFLTSWENHRLESAYQNHLILKVLVFNFLNCFASLFYIAFVLKDMKLLRQSLATLLITSQILNQIMESFLPYWLQRKHGVRVKRKVQALKADIDATLYEQVILEKEMGTYLGTFDDYLELFLQFGYVSLFSCVYPLAAAFAVLNNFTEVNSDALKMCRVFKRPFSEPSANIGVWQLAFETMSVISVVTNCALIGMSPQVNAVFPESKADLILIVVAVEHALLALKFILAFAIPDKPRHIQMKLARLEFESLEALKQQQMKLVTENLKEEPMESGKEKAT", "values": [
      {"measurement": "stoichiometry N", "result": 2}
    ]}
  ]
}
